Experimental data: patent publication US20240383996A1 (SHANGHAI HENLIUS BIOTECH, published 2024)
Blank lines part the entries; values can stand above or below the binder they belong to.

Columns and labels:
[1] = molecular target: T1, Human OX40 expressed on transfected Jurkat or CHO cells (human, UniProt P43489 29-277); assay: flow cytometry on human OX40-transfected Jurkat cells, Alexa Fluor488 anti-human IgG Fc, Geo MFI
T1 construct: also called human OX40/Jurkat; human OX40/CHO
T1 sequence: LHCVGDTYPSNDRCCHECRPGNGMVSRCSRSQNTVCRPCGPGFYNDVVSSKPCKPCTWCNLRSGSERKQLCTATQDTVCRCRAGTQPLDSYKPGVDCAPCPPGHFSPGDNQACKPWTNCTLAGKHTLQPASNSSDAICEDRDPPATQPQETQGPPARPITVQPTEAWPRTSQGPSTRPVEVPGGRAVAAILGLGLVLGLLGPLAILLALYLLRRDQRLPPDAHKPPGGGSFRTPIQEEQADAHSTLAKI
Description: FIGS. 2A-2C depict whole cell binding of humanized anti-OX40 antibodies to human or cynomolgus OX40 assessed by flow cytometry. Human OX40-expressing Jurkat cells (FIG. 2A), human OX40-expressing CHO cells (FIG. 2B) and cynomolgus OX40-expressing CHO cells (FIG. 2C) were incubated with indicated anti-OX40 bivalent antibodies, and then stained with Alexa Fluor488 conjugated anti-human IgG Fc antibody. The fluorescence intensity was measured by flow cytometry.
(§1) Bivalent antibodies of these 15 clones were made by fusing VHH to human IgG1 Fc, expressed in ExpiCHO cells, and purified by Protein A affinity column. Binding affinity of the VHH-Fc bivalent antibodies to human or cynomolgus OX40 was evaluated by flow cytometry using Jurkat cells transfected with human OX40 (human OX40/Jurkat) (FIG. 2A), CHO cells transfected with human OX40 (human OX40/CHO) (FIG. 2B), and CHO cells transfected with cynomolgus OX40 (cyno OX40/CHO) (FIG. 2C). These antibodies with indicated concentrations were incubated with the cells in FACS buffer (3% FBS in PBS) on ice for 30 min, and the free antibodies were washed out with FACS buffer. Alexa fluor488 conjugated anti-human IgG Fc antibody (1:500) (Alexa Fluor488 AffiniPure goat anti-human IgG, Fcg fragment specific, Jackson labs) was further incubated with the cells on ice for 30 min. Cells were washed to remove free antibodies prior to FACS analysis using CytoFlex (Beckman Coulter). Binding affinity was calculated using GraphPad Prism three parameter logistic equation.

[2] = molecular target: T1, Human OX40 expressed on transfected …; assay: flow cytometry on human OX40-expressing CHO cells, Geo MFI
Description: (§2) FIGS. 4A-4D depict whole cell binding of anti-OX40 antibodies to human and cynomolgus OX40 assessed by flow cytometry.
as §1
(§3) The binding affinity of the anti-OX40 antibodies was further evaluated by flow cytometry using human OX40/Jurkat cells and human OX40/CHO cells using protocols described above. […] The cross-reactivity of the antibodies to cynomolgus OX40 was assessed by FACS analysis using cyno OX40/CHO cells.

[3] = molecular target: T2, Recombinant human OX40 extracellular domain fused to human IgG1 Fc (human, UniProt P43489 29-214); assay: Octet, human OX40 ECD-Fc immobilized on a biosensor chip
T2 construct: Produced in-house; also called OX40 ECD-Fc; human OX40 ECD-Fc; not shown: human IgG1 Fc
T2 sequence: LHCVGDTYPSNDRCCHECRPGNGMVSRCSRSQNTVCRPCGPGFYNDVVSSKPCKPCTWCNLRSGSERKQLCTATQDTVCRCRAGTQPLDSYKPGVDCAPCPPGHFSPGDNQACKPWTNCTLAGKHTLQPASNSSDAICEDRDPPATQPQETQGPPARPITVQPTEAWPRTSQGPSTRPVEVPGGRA
Text: The tetravalent antibodies were produced from transiently transfected ExpiCHO cells, and purified by Protein A affinity column.

[4] = molecular target: T1, Human OX40 expressed on transfected …; assay: flow cytometry on human OX40-expressing Jurkat cells, Geo MFI
Description: as §2, §1, §3

[5] = molecular target: T3, Cynomolgus OX40 expressed on transfected CHO cells (cynomolgus); assay: flow cytometry on cynomolgus OX40-expressing CHO cells, Geo MFI
T3 chain: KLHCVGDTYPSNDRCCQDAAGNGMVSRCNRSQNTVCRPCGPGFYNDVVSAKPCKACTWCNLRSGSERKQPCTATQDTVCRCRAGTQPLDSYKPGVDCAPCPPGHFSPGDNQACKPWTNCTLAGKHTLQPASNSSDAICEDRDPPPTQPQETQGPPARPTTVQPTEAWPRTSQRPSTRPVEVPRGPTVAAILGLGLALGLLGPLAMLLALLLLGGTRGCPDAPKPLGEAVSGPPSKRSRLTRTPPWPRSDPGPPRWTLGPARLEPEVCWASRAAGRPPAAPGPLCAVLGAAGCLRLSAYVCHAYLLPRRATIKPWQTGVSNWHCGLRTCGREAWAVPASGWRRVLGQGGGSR
Description: as §2
as §1, with “Cells were washed to remove free antibodies prior to FACS analysis using CytoFlex (Beckman Coulter).” left out
as §3

[6] = molecular target: T1, Human OX40 expressed on transfected …; assay: flow cytometry, whole cell binding to human OX40-expressing Jurkat cells, Geo MFI
[7] = molecular target: T1, Human OX40 expressed on transfected …; assay: as above; remark: listed apart in the source

binding result [1]: binds
B1: 4H2 VHH-Fc bivalent antibody (antibody, human IgG1, V domains shown)
VH: EVQLVESGGGLVQPGGSLRLSCAASGPLGYPSIAWFRQAPGKGLEFVSGIAWSTGDTYYADSVKGRFTISRDNSKNTLYLQMNSLRAEDTAVYYCAADTVVHYMGRHDIRDAEEYDYWGQGTLVTVSS
notes: Humanized VHH fused to human IgG1 Fc

EC50 [2]: 2.01 nM
Kd [3]: 6.57 nM
koff [3]: 0.000646 s⁻¹
EC50 [4]: 0.16 nM
EC50 [5]: 1.93 nM
EC50 [6]: 0.15 nM
B2: 1B3 tetravalent anti-OX40 antibody (1B3 VHH with GS linker on CH1 and on CL of human IgG1) (antibody, V domains shown)
V domain 1: EVQLVESGGGLVQPGGSLRLSCAASGPLGMPSIAWFRQAPGKGLEFVSGIAWSTGDTYYADSVKGRFTISRDNSKNTLYLQMNSLRAEDTAVYYCAADTQVHYMGRHDIRDREEYDYWGQGTLVTVSS
V domain 2: EVQLVESGGGLVQPGGSLRLSCAASGPLGMPSIAWFRQAPGKGLEFVSGIAWSTGDTYYADSVKGRFTISRDNSKNTLYLQMNSLRAEDTAVYYCAADTQVHYMGRHDIRDREEYDYWGQGTLVTVSS
notes: Four-chain format; The heavy and light variable regions of human IgG1 are replaced by the VHH

EC50 [2]: 2.69 nM
Kd [3]: 3.83 nM
koff [3]: 0.000391 s⁻¹
EC50 [4]: 4.25 nM
B3: 1B3 VHH-Fc bivalent antibody (antibody, human IgG1, V domains shown)
VH: EVQLVESGGGLVQPGGSLRLSCAASGPLGMPSIAWFRQAPGKGLEFVSGIAWSTGDTYYADSVKGRFTISRDNSKNTLYLQMNSLRAEDTAVYYCAADTQVHYMGRHDIRDREEYDYWGQGTLVTVSS
notes: also called 1B3-bivalent

binding result [1]: binds
B4: 4F5 VHH-Fc bivalent antibody (antibody, human IgG1, V domains shown)
VH: EVQLVESGGGLVQPGGSLRLSCAASGPLGLPSIAWFRQAPGKGLEFVSGIVWSGGDTYYADSVKGRFTISRDNSKNTLYLQMNSLRAEDTAVYYCAADTKVHYMGRFDIRDLEEYDYWGQGTLVTVSS
notes: as for B1

binding result [1]: binds
B5: 1C8 VHH-Fc bivalent antibody (antibody, human IgG1, V domains shown)
VH: EVQLVESGGGLVQPGGSLRLSCAASGPLGLPSIAWFRQAPGKGLEFVSGIAWEGGDTYYADSVKGRFTISRDNSKNTLYLQMNSLRAEDTAVYYCAADTVVHYMGRHDIRDYEEYDYWGQGTLVTVSS
notes: as for B1

binding result [1]: binds
B6: 1B7 VHH-Fc bivalent antibody (antibody, human IgG1, V domains shown)
VH: EVQLVESGGGLVQPGGSLRLSCAASGPLGEPSIAWFRQAPGKGLEFVSGIAWSSGDTYYADSVKGRFTISRDNSKNTLYLQMNSLRAEDTAVYYCAADTVVHYMGRHDIRDREEYDYWGQGTLVTVSS
notes: as for B1

binding result [1]: binds
B7: 3B8 VHH-Fc bivalent antibody (antibody, human IgG1, V domains shown)
VH: EVQLVESGGGLVQPGGSLRLSCAASGPLGQPSIAWFRQAPGKGLEFVSGIAWSSGDTYYADSVKGRFTISRDNSKNTLYLQMNSLRAEDTAVYYCAADTRVHYMGRHDIRDREEYDYWGQGTLVTVSS
notes: as for B1

binding result [1]: binds
B8: 4D10 VHH-Fc bivalent antibody (antibody, human IgG1, V domains shown)
VH: EVQLVESGGGLVQPGGSLRLSCAASGPLGYPFIAWFRQAPGKGLEFVSGIAWSTGDTYYADSVKGRFTISRDNSKNTLYLQMNSLRAEDTAVYYCAADTVVHYMGRHDIRDREEYDYWGQGTLVTVSS
notes: as for B1

binding result [1]: binds
B9: 1E6 VHH-Fc bivalent antibody (antibody, human IgG1, V domains shown)
VH: EVQLVESGGGLVQPGGSLRLSCAASGPLGLPSIAWFRQAPGKGLEFVSGIAWSTGDTYYADSVKGRFTISRDNSKNTLYLQMNSLRAEDTAVYYCAADTVVHYMGQHDIRDRVEYDYWGQGTLVTVSS
notes: as for B1

binding result [1]: binds
B10: 2D9 VHH-Fc bivalent antibody (antibody, human IgG1, V domains shown)
VH: EVQLVESGGGLVQPGGSLRLSCAASGPLGYPNIAWFRQAPGKGLEFVSGIAWSTGDTYYADSVKGRFTISRDNSKNTLYLQMNSLRAEDTAVYYCAADTVVHYMGRHDIRDREVYDYWGQGTLVTVSS
notes: as for B1

binding result [1]: binds
B11: 1G9B VHH-Fc bivalent antibody (antibody, human IgG1, V domains shown)
VH: EVQLVESGGGLVQPGGSLRLSCAASGPLGYPHIAWFRQAPGKGLEFVSGIAWSGGDSYYADSVKGRFTISRDNSKNTLYLQMNSLRAEDTAVYYCAADTLVHYMGRHDISDREEYDYWGQGTLVTVSS
notes: as for B1

binding result [1]: binds
B12: 2D3B VHH-Fc bivalent antibody (antibody, human IgG1, V domains shown)
VH: EVQLVESGGGLVQPGGSLRLSCAASGPLGSPSIAWFRQAPGKGLEFVSGIAWSTGDTYYADSVKGRFTISRDNSKNTLYLQMNSLRAEDTAVYYCAADTVVHYMVRHDIRDRESYDYWGQGTLVTVSS
notes: as for B1

binding result [1]: binds
B13: 1F4B VHH-Fc bivalent antibody (antibody, human IgG1, V domains shown)
VH: EVQLVESGGGLVQPGGSLRLSCAASGPLGTPSIAWFRQAPGKGLEFVSAIAWSQGDTYYADSVKGRFTISRDNSKNTLYLQMNSLRAEDTAVYYCAADTVVHYMGRHDIRDEEEYDYWGQGTLVTVSS
notes: as for B1

binding result [1]: binds
B14: 4A6B VHH-Fc bivalent antibody (antibody, human IgG1, V domains shown)
VH: EVQLVESGGGLVQPGGSLRLSCAASGPLGYPLIAWFRQAPGKGLEFVSGIAWSDGDTYYADSVKGRFTISRDNSKNTLYLQMNSLRAEDTAVYYCAADTVVHYMGRHDIRDRSEYDYWGQGTLVTVSS
notes: as for B1

binding result [1]: binds
B15: 4E8 VHH-Fc bivalent antibody (antibody, human IgG1, V domains shown)
VH: EVQLVESGGGLVQPGGSLRLSCAASGPLGYPSFAWFRQAPGKGLEFVSGIAWSSGDTYYADSVKGRFTISRDNSKNTLYLQMNSLRAEDTAVYYCAADTVVGYMGRHDIRDLEEYDYWGQGTLVTVSS
notes: as for B1

EC50 [2]: 1.96 nM
Kd [3]: 6.94 nM
koff [3]: 0.000763 s⁻¹
EC50 [4]: 0.2 nM
EC50 [5]: 1.98 nM
EC50 [6]: 0.14 nM
EC50 [7]: 0.39 nM
B16: 2B7 tetravalent anti-OX40 antibody (2B7 VHH with GS linker on CH1 and on CL of human IgG1) (antibody, V domains shown)
V domain 1: EVQLVESGGGLVQPGGSLRLSCAASGPLGAPSIAWFRQAPGKGLEFVSGIAWSTGDTYYADSVKGRFTISRDNSKNTLYLQMNSLRAEDTAVYYCAADTSVHYMGRHDIRDYEEYDYWGQGTLVTVSS
V domain 2: EVQLVESGGGLVQPGGSLRLSCAASGPLGAPSIAWFRQAPGKGLEFVSGIAWSTGDTYYADSVKGRFTISRDNSKNTLYLQMNSLRAEDTAVYYCAADTSVHYMGRHDIRDYEEYDYWGQGTLVTVSS

EC50 [2]: 3.11 nM
Kd [3]: 3.68 nM
koff [3]: 0.000398 s⁻¹
EC50 [4]: 9.79 nM
B17: 2B7 VHH-Fc bivalent antibody (antibody, human IgG1, V domains shown)
VH: EVQLVESGGGLVQPGGSLRLSCAASGPLGAPSIAWFRQAPGKGLEFVSGIAWSTGDTYYADSVKGRFTISRDNSKNTLYLQMNSLRAEDTAVYYCAADTSVHYMGRHDIRDYEEYDYWGQGTLVTVSS
notes: also called 2B7-bivalent
